Source: the supplement of paper PMC10065799, “High-throughput profiling of sequence recognition by tyrosine kinases and SH2 domains using bacterial peptide display” (eLife, 2023)

System: Fer (mouse)
Assay: phosphorylation enrichment, bacterial display (enrichment ratio); higher = better substrate or ligand; peptides without Tyr show the background
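Further: 11-residue human phosphosite peptides and single-mutation variants displayed on the E. coli surface, counted by deep sequencing, each peptide's frequency after selection divided by its frequency in the unselected input library; frequency after pTyr selection over input frequency; kinase dosed for 20-30% of maximal phosphorylation in three min.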

**Q.** Which phosphorylation enrichment does the source give for HRGSLYLAIEF [TEK_Y899_Y897S_YF] here?
**A.** The phosphorylation enrichment was 0.748.

**Q.** For VFPIDYYFPPQ [AR_Y552_L548F], which phosphorylation enrichment is on record?
**A.** The phosphorylation enrichment was 0.536.

**Q.** With PLDNLYAEPAV [PRPS1_Y146_V142L] as the sequence, how does the phosphorylation enrichment read?
**A.** The phosphorylation enrichment was 4.92.

**Q.** How did the phosphorylation enrichment turn out when YASALYRQRRS [FGF11_Y162] was run?
**A.** Its phosphorylation enrichment is 0.431.

**Q.** VKPENYWRLDI [VHL_Y175_R176W] was tested. Which phosphorylation enrichment did it give?
**A.** Its phosphorylation enrichment is 0.441.

**Q.** FLRKEYGGLNV [CBR3_Y81] was tested. Which phosphorylation enrichment did it give?
**A.** Its phosphorylation enrichment is 0.375.

**Q.** For DKATEYIQFVR [MAX_Y70_M74V_YF], which phosphorylation enrichment is on record?
**A.** Its phosphorylation enrichment is 0.465.

**Q.** Which phosphorylation enrichment does the source give for MGSFNYLGFAR [SPTLC2_Y178_YF] here?
**A.** The phosphorylation enrichment was 0.431.

**Q.** For KIPGRYFETGS [PAX2_Y72_L69P_YF], which phosphorylation enrichment is on record?
**A.** The phosphorylation enrichment was 0.427.

**Q.** How did the phosphorylation enrichment turn out when GSPAPYRRRKR [MBD1_Y403_P401A] was run?
**A.** The phosphorylation enrichment was 0.505.

**Q.** Which phosphorylation enrichment does the source give for PINEPYGDDLD [JUP_Y693_M697L] here?
**A.** The phosphorylation enrichment was 0.734.

**Q.** LHSDHYSPSGR [TMPRSS12_Y23_Y19H] was tested. Which phosphorylation enrichment did it give?
**A.** The phosphorylation enrichment was 0.746.

**Q.** EKQLLYSENKT [FRK_Y132] was tested. Which phosphorylation enrichment did it give?
**A.** Its phosphorylation enrichment is 1.19.

**Q.** NSRYTCKLEVK [USH2A_Y3747_Y3747C] was tested. Which phosphorylation enrichment did it give?
**A.** The phosphorylation enrichment was 0.501.

**Q.** With DRLASNLDKVR [KRT10_Y160_Y160N] as the sequence, how does the phosphorylation enrichment read?
**A.** Its phosphorylation enrichment is 0.339.

**Q.** How did the phosphorylation enrichment turn out when GNHVSYYQSDG [CACNA1C_Y1757] was run?
**A.** Its phosphorylation enrichment is 0.49.

**Q.** How did the phosphorylation enrichment turn out when SIIKDSFHRGA [GATM_Y203_Y203S] was run?
**A.** The phosphorylation enrichment was 0.403.

**Q.** How did the phosphorylation enrichment turn out when EFLHKYKGFKI [SYNE1_Y6953_Q6951H_YF] was run?
**A.** Its phosphorylation enrichment is 0.379.

**Q.** For KTDVRYRSLGG [DYSF_Y1858_H1857R], which phosphorylation enrichment is on record?
**A.** Its phosphorylation enrichment is 0.414.

**Q.** Which phosphorylation enrichment does the source give for SVEVPYEPPEV [TP53_Y220_V217E] here?
**A.** The phosphorylation enrichment was 0.572.

**Q.** For RVGNMYVRGLS [ABCG8_Y209], which phosphorylation enrichment is on record?
**A.** The phosphorylation enrichment was 0.468.

**Q.** How did the phosphorylation enrichment turn out when PLGKDYRKAEG [MAP1A_Y1909] was run?
**A.** Its phosphorylation enrichment is 0.655.

**Q.** How did the phosphorylation enrichment turn out when SYMVRYNQPRV [GRIN2D_Y736] was run?
**A.** Its phosphorylation enrichment is 0.419.

**Q.** Which phosphorylation enrichment does the source give for SFKNKYGMVAQ [APOB_Y276_YF] here?
**A.** Its phosphorylation enrichment is 0.335.

**Q.** Which phosphorylation enrichment does the source give for GLRSFYETSKM [MAGED2_Y449_YF] here?
**A.** Its phosphorylation enrichment is 0.505.

**Q.** Which phosphorylation enrichment does the source give for AEYGLYGAMVW [VSX2_Y222_R227W] here?
**A.** The phosphorylation enrichment was 4.58.

**Q.** For TVFENYVADIE [RHOA_Y42], which phosphorylation enrichment is on record?
**A.** The phosphorylation enrichment was 0.513.

**Q.** PESIPYRKFTT [NTRK1_Y701_L700P] was tested. Which phosphorylation enrichment did it give?
**A.** Its phosphorylation enrichment is 0.353.

**Q.** Which phosphorylation enrichment does the source give for ATDLAYYLVRE [ASL_Y375_K380E] here?
**A.** Its phosphorylation enrichment is 0.43.

**Q.** How did the phosphorylation enrichment turn out when FHNSEYGELSE [FLT4_Y1337_Y1333H] was run?
**A.** Its phosphorylation enrichment is 0.473.

**Q.** With HNQDGYSFLSR [LDLR_Y845_P848L_YF] as the sequence, how does the phosphorylation enrichment read?
**A.** The phosphorylation enrichment was 0.427.

**Q.** Which phosphorylation enrichment does the source give for ASPKSYPSQKH [CAP2_Y316_T311A] here?
**A.** Its phosphorylation enrichment is 0.323.

**Q.** KICDWYQRQRP [KRT14_Y151_R148C] was tested. Which phosphorylation enrichment did it give?
**A.** The phosphorylation enrichment was 0.513.

Target: Fes (UniProt P07332)
Sequence (P07332 whole entry, looked up): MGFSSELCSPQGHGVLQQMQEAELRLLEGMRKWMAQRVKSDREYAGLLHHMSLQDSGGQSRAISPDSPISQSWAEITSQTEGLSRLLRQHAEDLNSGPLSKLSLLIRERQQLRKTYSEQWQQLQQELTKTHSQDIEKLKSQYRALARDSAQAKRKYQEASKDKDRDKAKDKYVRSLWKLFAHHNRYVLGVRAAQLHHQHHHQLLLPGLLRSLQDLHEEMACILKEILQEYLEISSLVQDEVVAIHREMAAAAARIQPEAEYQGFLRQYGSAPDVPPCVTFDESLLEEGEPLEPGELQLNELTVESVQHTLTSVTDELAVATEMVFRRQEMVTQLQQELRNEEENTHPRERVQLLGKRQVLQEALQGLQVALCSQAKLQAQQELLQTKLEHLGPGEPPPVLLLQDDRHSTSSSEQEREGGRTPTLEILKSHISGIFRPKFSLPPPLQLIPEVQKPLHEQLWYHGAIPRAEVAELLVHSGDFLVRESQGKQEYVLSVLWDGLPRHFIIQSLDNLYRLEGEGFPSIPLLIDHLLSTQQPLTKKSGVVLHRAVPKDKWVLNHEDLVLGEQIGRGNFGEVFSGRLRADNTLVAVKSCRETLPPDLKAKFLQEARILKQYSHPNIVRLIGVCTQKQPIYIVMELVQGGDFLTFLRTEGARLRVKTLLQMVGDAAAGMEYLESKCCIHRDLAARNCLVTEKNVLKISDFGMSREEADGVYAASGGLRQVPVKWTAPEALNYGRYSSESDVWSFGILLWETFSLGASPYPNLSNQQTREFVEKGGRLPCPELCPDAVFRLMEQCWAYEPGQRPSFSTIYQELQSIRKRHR
Assay: as above

**Q.** With HRGSLYLAIEF [TEK_Y899_Y897S_YF] as the sequence, how does the phosphorylation enrichment read?
**A.** The phosphorylation enrichment was 1.55.

**Q.** VFPIDYYFPPQ [AR_Y552_L548F] was tested. Which phosphorylation enrichment did it give?
**A.** The phosphorylation enrichment was 0.914.

**Q.** How did the phosphorylation enrichment turn out when PLDNLYAEPAV [PRPS1_Y146_V142L] was run?
**A.** The phosphorylation enrichment was 1.66.

**Q.** How did the phosphorylation enrichment turn out when YASALYRQRRS [FGF11_Y162] was run?
**A.** Its phosphorylation enrichment is 0.632.

**Q.** Which phosphorylation enrichment does the source give for VKPENYWRLDI [VHL_Y175_R176W] here?
**A.** The phosphorylation enrichment was 1.15.

**Q.** For FLRKEYGGLNV [CBR3_Y81], which phosphorylation enrichment is on record?
**A.** Its phosphorylation enrichment is 0.618.

**Q.** Which phosphorylation enrichment does the source give for DKATEYIQFVR [MAX_Y70_M74V_YF] here?
**A.** The phosphorylation enrichment was 0.705.

**Q.** With MGSFNYLGFAR [SPTLC2_Y178_YF] as the sequence, how does the phosphorylation enrichment read?
**A.** Its phosphorylation enrichment is 0.661.

**Q.** KIPGRYFETGS [PAX2_Y72_L69P_YF] was tested. Which phosphorylation enrichment did it give?
**A.** Its phosphorylation enrichment is 1.31.

**Q.** How did the phosphorylation enrichment turn out when GSPAPYRRRKR [MBD1_Y403_P401A] was run?
**A.** The phosphorylation enrichment was 0.545.

**Q.** Which phosphorylation enrichment does the source give for PINEPYGDDLD [JUP_Y693_M697L] here?
**A.** Its phosphorylation enrichment is 1.16.

**Q.** For LHSDHYSPSGR [TMPRSS12_Y23_Y19H], which phosphorylation enrichment is on record?
**A.** The phosphorylation enrichment was 0.585.

**Q.** Which phosphorylation enrichment does the source give for EKQLLYSENKT [FRK_Y132] here?
**A.** The phosphorylation enrichment was 0.919.

**Q.** With NSRYTCKLEVK [USH2A_Y3747_Y3747C] as the sequence, how does the phosphorylation enrichment read?
**A.** Its phosphorylation enrichment is 1.45.

**Q.** With DRLASNLDKVR [KRT10_Y160_Y160N] as the sequence, how does the phosphorylation enrichment read?
**A.** The phosphorylation enrichment was 0.547.

**Q.** With GNHVSYYQSDG [CACNA1C_Y1757] as the sequence, how does the phosphorylation enrichment read?
**A.** The phosphorylation enrichment was 0.762.

**Q.** Which phosphorylation enrichment does the source give for SIIKDSFHRGA [GATM_Y203_Y203S] here?
**A.** Its phosphorylation enrichment is 0.414.

**Q.** For EFLHKYKGFKI [SYNE1_Y6953_Q6951H_YF], which phosphorylation enrichment is on record?
**A.** Its phosphorylation enrichment is 0.765.

**Q.** KTDVRYRSLGG [DYSF_Y1858_H1857R] was tested. Which phosphorylation enrichment did it give?
**A.** Its phosphorylation enrichment is 0.472.

**Q.** How did the phosphorylation enrichment turn out when SVEVPYEPPEV [TP53_Y220_V217E] was run?
**A.** The phosphorylation enrichment was 1.4.

**Q.** With RVGNMYVRGLS [ABCG8_Y209] as the sequence, how does the phosphorylation enrichment read?
**A.** Its phosphorylation enrichment is 0.839.

**Q.** Which phosphorylation enrichment does the source give for PLGKDYRKAEG [MAP1A_Y1909] here?
**A.** The phosphorylation enrichment was 0.941.

**Q.** For SYMVRYNQPRV [GRIN2D_Y736], which phosphorylation enrichment is on record?
**A.** Its phosphorylation enrichment is 0.734.

**Q.** With SFKNKYGMVAQ [APOB_Y276_YF] as the sequence, how does the phosphorylation enrichment read?
**A.** Its phosphorylation enrichment is 0.574.

**Q.** GLRSFYETSKM [MAGED2_Y449_YF] was tested. Which phosphorylation enrichment did it give?
**A.** The phosphorylation enrichment was 0.739.

**Q.** How did the phosphorylation enrichment turn out when AEYGLYGAMVW [VSX2_Y222_R227W] was run?
**A.** The phosphorylation enrichment was 1.37.

**Q.** With TVFENYVADIE [RHOA_Y42] as the sequence, how does the phosphorylation enrichment read?
**A.** The phosphorylation enrichment was 1.15.

**Q.** How did the phosphorylation enrichment turn out when PESIPYRKFTT [NTRK1_Y701_L700P] was run?
**A.** The phosphorylation enrichment was 0.917.

**Q.** With ATDLAYYLVRE [ASL_Y375_K380E] as the sequence, how does the phosphorylation enrichment read?
**A.** Its phosphorylation enrichment is 0.909.

**Q.** How did the phosphorylation enrichment turn out when FHNSEYGELSE [FLT4_Y1337_Y1333H] was run?
**A.** The phosphorylation enrichment was 1.23.

**Q.** HNQDGYSFLSR [LDLR_Y845_P848L_YF] was tested. Which phosphorylation enrichment did it give?
**A.** Its phosphorylation enrichment is 0.795.

**Q.** Which phosphorylation enrichment does the source give for ASPKSYPSQKH [CAP2_Y316_T311A] here?
**A.** The phosphorylation enrichment was 0.511.

**Q.** KICDWYQRQRP [KRT14_Y151_R148C] was tested. Which phosphorylation enrichment did it give?
**A.** Its phosphorylation enrichment is 0.9.
